Positions count from the first letter of the chain named.
T1: human IGSF11 (VSIG3) expressed on cells (human, UniProt Q5DX21 23-431)
T1 sequence: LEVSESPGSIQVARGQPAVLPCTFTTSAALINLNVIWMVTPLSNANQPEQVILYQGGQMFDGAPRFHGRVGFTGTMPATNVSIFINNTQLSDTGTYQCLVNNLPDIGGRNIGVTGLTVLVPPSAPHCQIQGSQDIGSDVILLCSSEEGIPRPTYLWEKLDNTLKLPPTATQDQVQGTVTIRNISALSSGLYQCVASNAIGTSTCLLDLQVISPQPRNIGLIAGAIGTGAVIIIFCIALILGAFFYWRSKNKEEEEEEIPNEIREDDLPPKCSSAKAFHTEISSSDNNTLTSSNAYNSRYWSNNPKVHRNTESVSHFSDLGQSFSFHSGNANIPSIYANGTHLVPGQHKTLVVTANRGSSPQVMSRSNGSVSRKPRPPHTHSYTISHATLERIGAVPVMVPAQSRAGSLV

T2: human IGSF11 (VSIG3) ECD, His-tagged (human, UniProt Q5DX21 23-241)
T2 construct: in part bought (SinoBiological 13094-H08H); also called HIS-IGSF11; IGSF11-HIS; not shown: His tag
T2 sequence: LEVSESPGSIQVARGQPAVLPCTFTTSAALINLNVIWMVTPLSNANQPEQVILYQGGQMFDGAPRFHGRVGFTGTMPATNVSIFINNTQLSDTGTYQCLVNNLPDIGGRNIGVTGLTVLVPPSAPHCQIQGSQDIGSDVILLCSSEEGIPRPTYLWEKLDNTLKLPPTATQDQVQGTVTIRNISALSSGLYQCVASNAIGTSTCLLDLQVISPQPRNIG

T3: extracellular domain (ECD) of human IGSF11 (VSIG3), recombinant (human, UniProt Q5DX21 23-241)
T3 construct: biotinylated where captured on streptavidin; tags of the reagent not always stated; also called IGSF11 (ECD domain); ECD-IGSF11
T3 sequence: T2 sequence

T4: ECD of murine IGSF11, recombinant biotinylated (mouse, UniProt P0C673 23-240)
T4 construct: whole entry named; also called Mouse IGSF11
T4 sequence: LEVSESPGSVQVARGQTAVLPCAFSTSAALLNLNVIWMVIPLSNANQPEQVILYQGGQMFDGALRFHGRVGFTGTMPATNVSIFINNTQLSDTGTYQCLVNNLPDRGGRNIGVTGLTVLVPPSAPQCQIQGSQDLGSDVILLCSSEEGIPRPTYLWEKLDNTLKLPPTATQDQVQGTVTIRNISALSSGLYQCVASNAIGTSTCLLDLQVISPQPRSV

T5: full-length ECD of human IGSF11 fused to murine Fc (human, UniProt Q5DX21 23-241)
T5 construct: also called Fc-fusion IGSF11 ECD; not shown: murine Fc
T5 sequence: T2 sequence

T6: IgV domain of human IGSF11 fused to murine IgG2a Fc (human, UniProt Q5DX21 23-143)
T6 construct: not shown: murine IgG2a Fc-region
T6 sequence: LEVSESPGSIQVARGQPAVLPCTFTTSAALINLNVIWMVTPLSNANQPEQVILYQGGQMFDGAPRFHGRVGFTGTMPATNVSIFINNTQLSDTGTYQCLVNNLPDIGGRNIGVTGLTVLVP

B1: A-015 (IgG1 format) (antibody, V domains shown)
VH: not shown
VL: QPVLTQSPSASASLGASVKLTCTLSSGHTNYAIAWRQQQPGKAPRYLMLLNSDGSHTRGGGIPDRFSGSSSGAERYLTISSLQSEDEADYYCMIWHNNAWVFGGGTKLAVL
notes: human IgG1 format
B2: A-001 (IgG1 format) (antibody, V domains shown)
VH: EVQLVESGGGLVKPGGSLRLSCAASGFTFSSYSMNWVRQAPGKGLEWVSSISSSSSYIYYADSVKGRFTISRDNAKNSLYLQMNSLRAEDTAVYYCVRSIIVQALGITSVFDIWGQGTMVTVSS
VL: AIRLTQSPSSLSASVGDRVTISCRASQIISNHLNWYQQKPGKAPKLLIYAASRLQTGVPSRFSGSGSETDYTLTISSLQPEDFATYYCQQSYSNPRTFGHGTKVEIK
notes: human IgG1 format
B3: A-016 (IgG1 format) (antibody, V domains shown)
VH: QVQLQESGAEVKKPGASVKVSCKASGYTFTGYYMHWVRQAPGQGLEWMGGIIPIFGTANYAQKFQGRVTITADESTSTAYMELSSLRSEDTAVYYCAGAGMELTRSGAYYYYGMDVWGQGTTVTVSS
VL: QSALTQPASVSGSPGQSITISCTGTSSDIGGYTFVSWYQQHPGKAPKVMIHDVNNRPSGISNRFSGSKSGNTASLTISGLQAEDEADYYCSSVTSTNTYVFGTGTKVTVL
notes: human IgG1 format
B4: A-007 (scFv format) (scFv, V domains shown)
VH: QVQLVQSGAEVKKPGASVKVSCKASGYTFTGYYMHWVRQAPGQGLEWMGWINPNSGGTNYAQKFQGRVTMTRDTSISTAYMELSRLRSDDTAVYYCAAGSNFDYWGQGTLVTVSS
VL: QSALTQPASVSGSPGQSITIACTGSSSDIGSFSYVSWYQQRPGKAPTLIIYGVNNRPLGVSRRFSGSKSGNTASLSISGLQAEDEADYYCSSYTRRSTVIFGGGTKLTVL
notes: scFv
B5: A-006 (scFv format) (scFv, V domains shown)
VH: EVQLVESGGGLIQPGGSLRLSCAASGFTVSSNYMSWVRQAPGKGLEWVSVIYSGGSTYYADSVKGRFTISRDNSKNTLYLQMNSLRAEDTAVYYCARGNPYYYGDLQVNFDYWGQGTLVTVSS
VL: QAVVTQEPSLTVSPGGTVTLTCASSTGAVTSGYYPNWFQQKPGQAPRPLIYSTSNKHSWTPARFSGSLLGGKAALTLSGVQPDDEAEYYCLLYYGGDWVFGGGTKLTVL
notes: scFv
B6: A-012 (scFv format) (scFv, V domains shown)
VH: B5 VH with V5L, A24V
VL: B5 VL with P48A, D83E, D97A
notes: scFv
B7: A-013 (scFv format) (scFv, V domains shown)
VH: B5 VH
VL: B5 VL with G32A, P48A, D83E, E87D, D97A
notes: scFv
B8: A-010 (scFv format) (scFv, V domains shown)
VH: QVQLVQSGAEVKKPGASVKVSCKASGYTFTSYGISWVRQAPGQGLEWMGWISAYNGNTNYAQKLQGRVTMTTDTSTSTAYMELRSLRSDDTAVYYCARVPAWSGQFDYWGQGTLVTVSS
VL: QSALTQPASVSGSPGQSITISCTGSSSDVGGYNYVSWYQQYPGKAPKLMIYDVRSRPSGVSNRFSGSKSGNTASLTISGLQAEDEADYYCTSYTSSNTLVIFGGGTKVTVL
notes: scFv
B9: A-015 (scFv format) (scFv, V domains shown)
VH: not shown
VL: B1 VL
notes: scFv
B10: C-009 (IgG1 format) (antibody, V domains shown)
VH: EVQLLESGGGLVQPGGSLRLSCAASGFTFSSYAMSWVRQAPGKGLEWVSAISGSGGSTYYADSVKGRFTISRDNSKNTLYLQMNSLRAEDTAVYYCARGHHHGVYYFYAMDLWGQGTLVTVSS
VL: SYELTQPPSVSVSPGQTASITCSGDKLGDKYASWYQQKPGQSPVLVIYQDSKRPSGIPERFSGSNSGNTATLTISGTQAEDEADYYCQSYSGSSTLHVFGGGTKLTVL
B11: C-024 (IgG1 format) (antibody, V domains shown)
VH: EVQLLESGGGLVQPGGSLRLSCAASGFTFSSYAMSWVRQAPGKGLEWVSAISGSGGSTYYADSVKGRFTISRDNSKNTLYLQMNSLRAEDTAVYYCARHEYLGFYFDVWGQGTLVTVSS
VL: B10 VL with Q88L, S89A, Y90S, S91H, G92R, S93L, S94T, T95L, L96N, H97Y
B12: C-008 (IgG1 format) (antibody, V domains shown)
VH: EVQLLESGGGLVQPGGSLRLSCAASGFTFSSYAMSWVRQAPGKGLEWVSAISGSGGSTYYADSVKGRFTISRDNSKNTLYLQMNSLRAEDTAVYYCTTDNGHNRDWGQGTLVTVSS
VL: ASVLTQPPSVSAAPGQKVTISCSGSSSNIGNNYVSWYQQLPGTAPKLLIYDNNKRPSGIPDRFSGSKSGTSATLGITGLQAEDEADYYCGTWTRSSGVFGGGTKLTVL
B13: C-026 (IgG1 format) (antibody, V domains shown)
VH: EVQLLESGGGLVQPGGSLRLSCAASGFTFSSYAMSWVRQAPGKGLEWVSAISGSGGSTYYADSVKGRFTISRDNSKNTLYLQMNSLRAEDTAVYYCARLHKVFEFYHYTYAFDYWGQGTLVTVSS
VL: ASVLTQPPSVSAAPGQKVTISCSGSSSNIGNNYVSWYQQLPGTAPKLLIYDNNKRPSGIPDRFSGSKSGTSATLGITGLQAEDEADYYCASYSSETSGWVFGGGTKLTVL
B14: C-025 (IgG1 format) (antibody, V domains shown)
VH: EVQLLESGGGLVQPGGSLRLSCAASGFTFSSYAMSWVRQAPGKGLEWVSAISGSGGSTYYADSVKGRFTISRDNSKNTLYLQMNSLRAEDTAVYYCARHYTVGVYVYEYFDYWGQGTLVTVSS
VL: SYELTQPPSVSVSPGQTASITCSGDKLGDKYASWYQQKPGQSPVLVIYQDSKRPSGIPERFSGSNSGNTATLTISGTQAEDEADYYCQSYATAGFVFGGGTKLTVL
B15: C-023 (Fab format) (Fab, V domains shown)
VH: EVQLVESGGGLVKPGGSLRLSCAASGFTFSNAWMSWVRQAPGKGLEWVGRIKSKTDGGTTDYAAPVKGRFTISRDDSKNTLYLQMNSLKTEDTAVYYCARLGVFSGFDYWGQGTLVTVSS
VL: B10 VL with Q88H, S89T, Y90W, S91T, G92H, S93H, T95L, L96A, H97V
notes: Fab from E. coli lysate
B16: C-015 (Fab format) (Fab, V domains shown)
VH: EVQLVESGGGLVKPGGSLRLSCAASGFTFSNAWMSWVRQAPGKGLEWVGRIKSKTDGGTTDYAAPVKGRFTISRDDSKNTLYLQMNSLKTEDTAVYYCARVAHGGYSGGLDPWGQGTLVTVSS
VL: B10 VL with Q88S, Y90T, S91G, G92T, S93A, S94H, H97A
notes: Fab from E. coli lysate
B17: C-021 (Fab format) (Fab, V domains shown)
VH: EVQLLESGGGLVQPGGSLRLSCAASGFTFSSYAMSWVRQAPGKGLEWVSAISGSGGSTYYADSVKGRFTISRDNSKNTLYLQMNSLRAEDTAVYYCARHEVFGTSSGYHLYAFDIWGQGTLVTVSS
VL: DIQMTQSPSSLSASVGDRVTITCRASQSISSYLNWYQQKPGKAPKLLIYAASSLQSGVPSRFSGSGSGTDFTLTISSLQPEDFATYYCQQWSGLPLTFGQGTKVEIK
notes: Fab from E. coli lysate
B18: C-016 (Fab format) (Fab, V domains shown)
VH: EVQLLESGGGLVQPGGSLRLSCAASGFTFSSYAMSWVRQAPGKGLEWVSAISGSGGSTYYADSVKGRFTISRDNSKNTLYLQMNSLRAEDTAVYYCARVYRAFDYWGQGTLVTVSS
VL: B13 VL with A90H, S91L, S93T, S94E, E95A, T96E, G98H
notes: Fab from E. coli lysate
B19: C-002 (Fab format) (Fab, V domains shown)
VH: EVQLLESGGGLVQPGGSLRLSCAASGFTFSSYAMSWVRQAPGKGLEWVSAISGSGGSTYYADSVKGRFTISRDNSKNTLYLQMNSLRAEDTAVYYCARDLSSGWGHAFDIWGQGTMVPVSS
VL: B13 VL with A90L, S93T, S94T, E95S, T96E, S97H, G98H, W99L
notes: Fab from E. coli lysate

target: T1, human IGSF11 (VSIG3) expressed on cells; experiment: FACS, DMS 273 cells with IGSF11 siRNA (KD, knock-down control)

Binder | % binding (FACS heat-map) [%]
B1 | 1.6

target: T1, human IGSF11 (VSIG3) expressed on cells; experiment: FACS, M579-A2-luc cells with scrambled control siRNA (SC)

Binder | % binding (FACS heat-map) [%]
B1 | 1.17

target: T1, human IGSF11 (VSIG3) expressed on cells; experiment: FACS, DMS 273 cells with scrambled control siRNA (SC)

Binder | % binding (FACS heat-map) [%]
B1 | 5.97

target: T2, human IGSF11 (VSIG3) ECD, His-tagged; experiment: IgG1 ELISA EC50 <0.02 nM

Binder | EC50 [nM]
B2 | < 0.02
B3 | < 0.02

target: T1, human IGSF11 (VSIG3) expressed on cells; experiment: FACS, M579-A2-luc cells with IGSF11 siRNA (KD, knock-down control)

Binder | % binding (FACS heat-map) [%]
B1 | 1.3

target: T3, extracellular domain (ECD) of human …; experiment: ELISA RFU 0.5-1.0

Binder | ELISA binding signal (RFU) [rfu]
B4 | 0.5 to 1
B5 | 0.5 to 1
B6 | 0.5 to 1
B7 | 0.5 to 1
B8 | 0.5 to 1
B9 | 0.5 to 1

target: T4, ECD of murine IGSF11, recombinant …; experiment: ELISA RFU 0.5-1.0

Binder | ELISA binding signal (RFU) [rfu]
B4 | 0.5 to 1
B5 | 0.5 to 1
B6 | 0.5 to 1
B7 | 0.5 to 1
B8 | 0.5 to 1
B9 | 0.5 to 1

target: T5, full-length ECD of human IGSF11 fused …; experiment: IgG ELISA;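 also: ELISA binding of IgG antibodies to plate-coated IGSF11 Fc-fusion proteins (full-length ECD, IgV or IgC2 domain), detected via HRP-labelled anti-human IgG with TMB development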
Description: (§1) Binding of IgG antibodies to each of the full-length ECD of IGSF11, to the IgV domain of IGSF11 and to the IgC2 domain of IGSF11, was tested in the ELISA assay as follows: briefly, recombinant domains of Fc-fusion IGSF11 proteins were coated at 2 ug/mL on a 384-well Maxisorp plate. The surface was blocked with 2% (w/v) skim milk powder in PBST. […] After removing all unbound antibodies by 3 wash cycles with PBST, bound IgG ABPs were detected with a goat anti-human IgG antibody conjugated with horseradish peroxidase. After three wash cycles with PBST the ELISA was developed with TMB substrate.

Binder | EC50 [nM]
B10 | 1 to 20
B11 | 1 to 20
B12 | < 1
B13 | 1 to 20
B14 | 1 to 20

target: T6, IgV domain of human IGSF11 fused to …; experiment: IgG ELISA;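 also: ELISA binding of IgG antibodies to plate-coated IGSF11 Fc-fusion proteins (full-length ECD, IgV or IgC2 domain), detected via HRP-labelled anti-human IgG with TMB development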
Description: as §1

Binder | EC50 [nM]
B10 | < 1
B11 | 1 to 20
B12 | < 1
B13 | < 1
B14 | < 1

target: T4, ECD of murine IGSF11, recombinant …; experiment: Fab ELISA
Description: (§2) In order to identify IGSF11-specific binding ABPs, monoclonal Fabs expressed from E. coli were generated from the enriched set of anti-IGFS11 antibody-expressing phage. After bacterial lysis, the Fabs were tested for their binding properties and cross-reactivity profile on recombinant ECD-IGSF11 (human, mouse and cynomolgus monkey) by standard ELISA. Briefly, biotinylated recombinant ECD-IGSF11 from human, mouse, or cynomolgus monkey were immobilized at 2 ug/mL on a streptavidin-coated 384-well Maxisorp plate. The surface was blocked with 2% (w/v) skim milk powder in PBST. After three wash cycles with PBST, a bacterial lysate of each of the anti-IGSF11 Fabs in 2% (w/v) skim milk powder was applied to the immobilized IGSF11 and incubated for 1 h. After removing all unbound Fab by 3 wash cycles with PBST, bound Fab antibodies were detected with a goat anti-human Fab antibody conjugated with horseradish peroxidase. After three wash cycles with PBST the ELISA was developed with TMB substrate.

Binder | A450
B15 | < 1
B16 | < 1
B17 | < 1
B18 | < 1
B19 | < 1

target: Streptavidin (UniProt P22629 37-163, limits assumed); experiment: Fab ELISA
Sequence (P22629 37-163 limits assumed): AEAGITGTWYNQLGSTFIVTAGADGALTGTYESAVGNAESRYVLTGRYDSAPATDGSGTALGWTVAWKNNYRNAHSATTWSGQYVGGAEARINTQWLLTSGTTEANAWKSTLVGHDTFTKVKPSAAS
Description: as §2

Binder | A450
B15 | < 0.1
B16 | < 0.1
B17 | < 0.1
B18 | < 0.1
B19 | < 0.1

— patent publication US20220372138A1 (IOMX THERAPEUTICS, published 2022)
